Assay results published in US5145783A, “Glyphosate-tolerant 5-endolpyruvyl-3-phosphoshikimate synthase” (Monsanto Company, priority 1990, dated 1992).

Biological target: T1, wild-type EPSP synthase of tomato (Solanum lycopersicum, UniProt P10748)
T1 construct: ATG translational initiation codon at the site predicted to be the start of the mature enzyme for in vitro expression in E. Coli; initiator methionine (ATG in an engineered NcoI site) (N); made in house; host or cells: E. coli SR481 (aroA mutant) harboring pMON9719, desalted cell extract
Experiment: EPSP synthase activity assay, extracts of E. coli SR481 harboring pMON9719
Format: biochemical
Settings: cells containing pMON9719, no glyphosate
Experimental: E. coli SR481 cells harboring pMON9719 or pMON9729 were grown under conditions which induce the expression of the RecA promoter. The cells were lysed and the extracts were assayed for EPSP synthase activity.
Specifically, the bacterial cell paste was washed twice with 0.9% saline, suspended in buffer (100 mM Tris-HCl, 5 mM dithiothreitol, 1 mM EDTA, 10% glycerol and 1 mM benzamidine HCl) passed twice through the French Pressure Cell at 1000 psi. The cell abstract was separated from the cells by centrifuging at 15,000×gravity for 10 mins. at 5° C. It was desalted using Sephadex G-50 (Pharmacia, Piscataway, N.J.). The desalted extract was assayed for EPSP synthase activity as follows:
To an assay mix (40 μl) containing shikimate-3-phosphate (2 mM), ^14 C-phosphoenolpyruvate (1 mM, 1.2 mCi/mmol), ammonium molybdate (0.1 mM), potassium fluoride (5 mM), in 50 mM HEPES-KOH, pH 7, was added 10 μl of the extract and incubated at 25° C. for 2 mins. […] The radioactivity of the eluent was monitored using a Radiometric Flo-One Beta Instrument. […] The EPSP synthase activity was determined by measurement of the conversion of ^14 C-PEP to ^14 […], both of which are resolved under the above conditions of chromatography. The protein content of the extract was determined by the method of Bradford (Biorad Labs, Calif.). […]

B1: pMON9719: wild-type EPSP synthase of tomato expressed in E. coli SR481 under the recA promoter, cell extract (protein, UniProt P10748 77-520, looked up)
3-phosphoshikimate …: KPHEIVLXPIKDISGTVKLPGSKSLSNRILLLAALSEGRTVVDNLLSSDDIHYMLGALKTLGLHVEDDNENQRAIVEGCGGQFPVGKKSEEEIQLFLGNAGTAMRPLTAAVTVAGGHSRYVLDGVPRMRERPIGDLVDGLKQLGAEVDCSLGTNCPPVRIVSKGGLPGGKVKLSGSISSQYLTALLMAAPLALGDVEIEIIDKLISVPYVEMTLKLMERFGVFVEHSSGWDRFLVKGGQKYKSPGKAFVEGDASSASYFLAGAAVTGGTVTVEGCGTSSLQGDVKFAEVLEKMGAEVTWTENSVTVKGPPRNSSGMKHLRAIDVNMNKMPDVAMTLAVVALFADGPTTIRDVASWRVKETERMIAICTELRKLGATVVEGSDYCIITPPEKLNVTEIDTYDDHRMAMAFSLAACADVPVTIKNPGCTRKTFPDYFEVLQKYSKH
modifications: X: residue not identified in the source
notes: wild-type EPSP synthase of tomato expressed in E. coli SR481 under the recA promoter, cell extract
EPSP synthase activity (specific activity of the extract): about 1600 nanomoles of EPSP synthase formed/minute/mg protein
